From US20240400691A1 (FBD BIOLOGICS, published 2024)

Legend:
human CD47 [1] = target: T1, human CD47 (human, UniProt Q08722 19-323); experiment: flow cytometry on human platelets (CD47 on platelets per paragraph 5), PE goat anti-human IgG
T1 construct: whole, on cells; also called CD47 tf CHO-S; endogenous CD47 on FaDu and NCI-H460 cells
Experimental: (§1) The samples were analyzed using a CytoFLEX flow cytometer (Beckman Coulter Inc., CA, USA).

human CD47 [2] = target: T1, human CD47; experiment: flow cytometry on CD47 tf CHO-S cells, PE goat anti-human IgG
Experimental: To determine the whole cell binding ability of the HCB301_v5 proteins to CD47 expressed on cell surface, tf CHO-S cells expressing human CD47 (CD47 tf CHO-S) were used as target cells. […] The samples were analyzed using a CytoFLEX flow cytometer (Beckman Coulter Inc., CA, USA).
The EC50 values were determined according to the binding curves.

human PD-L1 [3] = target: T2, human PD-L1 (human, UniProt Q9NZQ7 19-290); experiment: flow cytometry on PD-L1 tf CHO-S cells, PE goat anti-human IgG; EC50 from the table under the curves
T2 construct: whole, on cells; For the PD-L1 tf DLD1 cells the species of PD-L1 is not restated; also called PD-L1 tf CHO-S; PD-L1 tf DLD1
Experimental: as §1
The EC50 values were also determined according to the binding curves.

human PD-L1 [4] = target: T2, human PD-L1; experiment: flow cytometry on PD-L1 tf DLD1 cells in a 1:1 mixture with DLD1 cells, PE goat anti-human IgG [D]
Experimental: The selective binding ability of HCB301_v5 proteins to PD-L1-expressing cells was determined as follows. DLD1 cells were labeled with CellTrace™ CFSE (Thermo, Cat #: C34554) and tf DLD1 cells expressing PD-L1 (PD-L1 tf DLD1) were labeled with Celltrace™ (Thermo, Cat #: C34557) according to the instructions provided by manufacturer. […] The samples were analyzed using a CytoFLEX flow cytometer (Beckman Coulter Inc., CA, USA). Afterwards, the cells were gated according to PE signals to calculate the percentages of different cell types by Kaluza analysis software (Beckman Coulter Inc.).

human PD-L1 [5] = target: T2, human PD-L1; experiment: flow cytometry competition on PD-L1 tf CHO-S cells against a fixed concentration of biotinylated PD1_G4, streptavidin-PE; IC50 from the table under the curves

T2 sequence (Q9NZQ7 19-290): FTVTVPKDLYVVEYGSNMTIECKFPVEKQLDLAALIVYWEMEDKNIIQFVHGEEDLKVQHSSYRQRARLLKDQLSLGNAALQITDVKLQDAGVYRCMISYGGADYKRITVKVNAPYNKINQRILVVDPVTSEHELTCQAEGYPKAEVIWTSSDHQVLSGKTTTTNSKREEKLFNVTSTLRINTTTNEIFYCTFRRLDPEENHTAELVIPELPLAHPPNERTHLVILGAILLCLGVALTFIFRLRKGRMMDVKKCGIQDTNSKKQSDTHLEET

| binding result (human CD47 [1]) | binding result (human CD47 [2]) | EC50 (human PD-L1 [3]) [nM] | EC50 (read off the curve) (human PD-L1 [4]) [nM] | IC50 (human PD-L1 [5]) [nM] | Binder |
| --- | --- | --- | --- | --- | --- |
| no binding (tested: 20 nM) |  |  |  |  | h1G4 (antibody, human IgG4 S228P, kappa, V domains shown, also called negative control) VH: QVQLVESGGGLVKPGGSLRLSCAASGFTFSNYGMSWIRQAPGKGLEWVSTISGGGSNIYYADSVKGRFTISRDNAKNSLYLQMNSLRAEDTAVYYCVSYYYGIDFWGQGTSVTVSS VL: DIQMTQSPSSLSASVGDRVTITCKASQDVTTAVAWYQQKPGKAPKLLIYWASTRHTGVPSRFSGSGSGTDFTLTISSLQPEDFATYYCQQHYTIPWTFGGGTKLEIKR |
|  | no binding (tested: 500 nM) | 0.22 | ~0.8 | 0.392 | anti-PD-L1 VHH (2H4) (VHH) VHH: QVQLVESGGGVVQPGRSLRLSCAASGGPFMSYAMGWFRQAPGKEREFVAAIRWNGISTFYADSVKGRFTISRDNSKNTLYLQMNSLRAEDTAVYYCAAAQTIVTVPENYHFDYWGQGTQVTVSS |
